Assay results taken from patent US20240026031A1 (University of California, published 2024).

Assays:
RNF43 [1] = molecular target: T1, RNF43 (UniProt Q68DV7 24-197, limits assumed); assay: affinity for RNF43; method and format not stated; WT anti-RNF43 A5
T1 sequence (looked up): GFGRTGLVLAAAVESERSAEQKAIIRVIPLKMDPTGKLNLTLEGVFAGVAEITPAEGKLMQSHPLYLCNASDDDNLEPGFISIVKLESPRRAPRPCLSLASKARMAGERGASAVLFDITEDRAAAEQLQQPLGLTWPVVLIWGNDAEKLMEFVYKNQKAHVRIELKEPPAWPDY

RNF43 [2] = molecular target: T1, RNF43; assay: affinity for RNF43; method and format not stated; F115A mutant of CDR H3
RNF43 [3] = molecular target: T1, RNF43; assay: affinity for RNF43; method and format not stated; S113A mutant of CDR H3

B1: anti-RNF43 A5 (WT RNF43 binder) (Fab, V domains shown)
VH: EVQLVESGGGLVQPGGSLRLSCAASGFNIYYYSMHWVRQAPGKGLEWVASISPYYSYTSYADSVKGRFTISADTSKNTAYLQMNSLRAEDTAVYYCARYGYYGWDYHRYSAFDYWGQGTLVTVSS
VL: DIQMTQSPSSLSASVGDRVTITCRASQSVGSALAWYQQKPGKAPKLLIYSASSLYSGVPSRFSGSRSGTDFTLTISSLQPEDFATYYCQQAYPITFGQGTKVEIKR
notes: also called WT RNF43 A5; clone anti-RNF43 A5
Kd (RNF43 [1]): 12.5 nM

B2: anti-RNF43 A5 alanine mutant F115A (CDR H3) (Fab, V domains shown)
VH: EVQLVESGGGLVQPGGSLRLSCAASGFNIYYYSMHWVRQAPGKGLEWVASISPYYSYTSYADSVKGRFTISADTSKNTAYLQMNSLRAEDTAVYYCARYGYYGWDYHRYSAADYWGQGTLVTVSS
VL: DIQMTQSPSSLSASVGDRVTITCRASQSVGSALAWYQQKPGKAPKLLIYSASSLYSGVPSRFSGSRSGTDFTLTISSLQPEDFATYYCQQAYPITFGQGTKVEIKR
Kd (RNF43 [2]): 125 nM

B3: anti-RNF43 A5 alanine mutant S113A (CDR H3) (Fab, V domains shown)
VH: EVQLVESGGGLVQPGGSLRLSCAASGFNIYYYSMHWVRQAPGKGLEWVASISPYYSYTSYADSVKGRFTISADTSKNTAYLQMNSLRAEDTAVYYCARYGYYGWDYHRYAAFDYWGQGTLVTVSS
VL: DIQMTQSPSSLSASVGDRVTITCRASQSVGSALAWYQQKPGKAPKLLIYSASSLYSGVPSRFSGSRSGTDFTLTISSLQPEDFATYYCQQAYPITFGQGTKVEIKR
notes: also called 40 nM
Kd (RNF43 [3]): 40 nM
